# According to the RNAGym collection of RNA variant scans (doi:10.7554/elife.80360):
# B1: Hairpin Ribozyme (parent)
# chain: GUCCUCUUUCACGUGCGCGUGAAAGAGAGAAGUGAACCAGAGAAACACACGUUGUGGUAUAUUACCUGGUA
# Variants of: B1
# Assay: self-cleavage, relative activity (ratio to wild type); higher = more cleavage; co-transcriptional
row,Variant,self-cleavage
1,U2A U33C,0.0635
2,U2C A24G,0.154
3,U2A G34C,0.501
4,U2A G34A,0.319
5,U2G U63A,0.149
6,U2A A23G,0.332
7,U2G U14G,0.322
8,U2C G56U,0.178
9,U2C A39U,0.249
10,G1U U58G,0.253
11,U2C U5G,0.0932
12,U2C U5C,0.0555
13,G1U A31C,0.0695
14,G1U A31G,0.0331
15,U2G G42A,0.0588
16,U2A C48G,0.162
17,U2A C48U,0.104
18,U2G A64U,0.0768
19,U2G G54A,0.114
20,G1U C50G,0.124
21,U2G C65U,0.163
22,U2G C65A,0.402
23,U2A C50G,0.189
24,U2G G51U,0.389

row,Variant,self-cleavage
1,U2G G51A,0.306
2,G1U C4U,0.206
3,U2A A22U,0.208
4,U2A A35C,0.374
5,U2A A35U,0.174
6,U2A A35G,0.225
7,U2A G32C,0.0974
8,U2C G57C,0.242
9,U2C A44G,0.275
10,U2C A44C,0.0731
11,U2A G19U,0.244
12,G1U C18A,0.157
13,G1C U62C,0.0543
14,U2A U62G,0.088
15,G1U U9A,0.115
16,U2C G21C,0.213
17,U2C G21U,0.185
18,U2A G15C,0.391
19,G1U U53C,0.179
20,U2G U8A,0.295
21,U2C A36U,0.207
22,U2C A36C,0.17
23,G1U U52G,0.143
24,U2G U53C,0.575

row,Variant,self-cleavage
1,G1U A24C,0.162
2,G1U A24G,0.0236
3,U2G A22G,0.264
4,U2G A22C,0.354
5,U2A C3A,0.401
6,U2C A61C,0.0902
7,U2C U14C,0.359
8,U2G G27U,0.172
9,U2G G27A,0.139
10,G1U A23G,0.183
11,G1U A23C,0.0726
12,U2C C38G,0.157
13,U2A G68C,0.154
14,U2G C16A,0.398
15,U2C G32A,0.138
16,U2C G32C,0.174
17,G1U G51U,0.133
18,U2A U7G,0.197
19,U2A U7C,0.273
20,U2G U58C,0.384
21,G1U G25U,0.21
22,G1U G25A,0.133
23,G1U G25C,0.0754
24,U2A G21C,0.186

row,Variant,self-cleavage
1,U2A G21A,0.204
2,G1U A26C,0.103
3,G1U A26U,0.068
4,U2A C10U,0.208
5,U2A C10A,0.132
6,U2A C10G,0.238
7,G1U G32U,0.0476
8,G1C G40A,0.0839
9,G1C G40U,0.202
10,G1U G57U,0.125
11,G1U G57C,0.145
12,U2A A61G,0.106
13,U2A A61U,0.159
14,U2G G17C,0.367
15,U2G C3U,0.181
16,G1U C48G,0.0484
17,G1U C10U,0.132
18,G1U C10A,0.151
19,U2A C16G,0.156
20,U2G U5G,0.0759
21,U2C G40U,0.103
22,U2C C16U,0.163
23,U2G A45C,0.0592
24,U2G A45U,0.0683

row,Variant,self-cleavage
1,G1U A64U,0.119
2,G1U A64C,0.166
3,G1U G21U,0.109
4,G1U G21C,0.112
5,G1U C12A,0.0913
6,U2C C10U,0.159
7,U2C C10G,0.118
8,U2C C10A,0.117
9,U2C A35G,0.243
10,U2C A35U,0.259
11,U2G C4U,0.15
12,U2G C4A,0.242
13,U2G G40A,0.105
14,G1U U63C,0.181
15,G1U U63A,0.215
16,G1C G56U,0.293
17,U2A C46G,0.0818
18,U2A G29U,0.111
19,U2C U33C,0.223
20,U2C U33G,0.0942
21,U2G A44G,0.0352
22,U2A A44G,0.119
23,U2C C65A,0.195
24,U2A U60C,0.542

row,Variant,self-cleavage
1,U2A U60G,0.222
2,U2A G40U,0.129
3,U2C U67C,0.0838
4,U2C A22C,0.161
5,G1U A49C,0.202
6,G1U A49U,0.0947
7,U2C A43C,0.0996
8,U2C A43U,0.177
9,U2C U8G,0.118
10,U2C U8A,0.191
11,U2A G54C,0.145
12,U2A G54A,0.143
13,U2A G69A,0.215
14,G1C U53C,0.239
15,G1C U5A,0.133
16,G1C U5G,0.237
17,U2C C48A,0.0257
18,G1C U55G,0.132
19,U2A C6U,0.182
20,U2A C6G,0.247
21,U2A C6A,0.238
22,G1U U20C,0.203
23,G1U U20G,0.0885
24,U2G U55G,0.367

row,Variant,self-cleavage
1,U2G U55A,0.195
2,U2C A11G,0.172
3,U2C U58C,0.175
4,U2A A49G,0.188
5,U2G G57C,0.117
6,U2A A28U,0.136
7,U2A A28C,0.258
8,U2G A39C,0.177
9,U2C U60C,0.222
10,U2C U60G,0.226
11,U2C U60A,0.312
12,U2C U63G,0
13,U2C U63C,0.109
14,U2A A64C,0.112
15,G1U A36C,0.143
16,G1C U52A,0.0569
17,G1C G27C,0.201
18,U2C A30G,0.349
19,G1C U63C,0.285
20,G1C U63A,0.194
21,U2C G15C,0.243
22,U2A A24C,0.134
23,U2A G17C,0.22
